Experiment: protease stability score; higher = more stable; yeast display proteolysis, trypsin and chymotrypsin;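 further: log10 excess protease needed over predicted unfolded state with 0 meaning unfolded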

## DHEEQMEKFIKTLKKLMKNNDWETWASLADPNAEARYGDSEYHGREKIVTHMRKLQEHVDHADLKFRSVSLRNGEVTMRISFHVKVNGTDQSHEAKLVLEIDNGRAVIKKMVLD
  protease stability score: 0.795

## DDHAERQARQVQTALKTGDPNQMERMFDENAEVVYGDKRIHGEHEASRVAKRIKEEMRVEYDVRRVTDNEDHVKFHAIIVIDENGKPRTKQLDLTMQQENGKVRLVSFRQDR
  protease stability score: -0.048

## DREEHASQLFRDMQEVYHNNDPSKFKHLVDENVTRDVGDKTVHGQDEMAREMEKEARRVDKVRFDVRDVKSNNGRIKVRFVVTHNENGRERSSDVTVRFQVSNGRLVIESQTET
  protease stability score: -0.206

## DEKQDRDIQRVLHDNNPDHMKKLVDENAHAQVGNKTYHGREQVLTLIEHMVRTVDHMSIDKVEVKNGKADMDYHVNINGQSARVRVDVKFHNGRIKEIRIQATDKEVRDILDEAFD
  protease stability score: 1.23

## DQEREMQEWYEKLVRNYENNDRDRLNELLDPNAQFNVGDQTFHGRENAKKWLKTMVDKVDSVEFDLRRLHVHGNKVVFHANVRYRVNGTDTTVDVVIVARVDNGRLRVEKVEYG
  protease stability score: 1.28

## DETDLLRKLIHHLKTAVDEGDPDKYVKNFDPNAKIDVGDKQWHGHDEIRKKMEDLVRQADHVRLTIDHMQVQGDKFNIHATIKYDNNGEDVERKFVLTATKKGDKAKAEFVTEQ
  protease stability score: 0.895

## DEKDQTRKAEKAARIFQHGNPDDVREMADEDVKVQIGDNRINGRHNLDTEVKELRDRVDDAKIEDFRASGNTIVLHIRFVVDGVDVHITIHINYHNGKAKRIDVKYTDERQKRRQDS
  protease stability score: 0.739

## DEDEARKVMKKWQEVVQKGDPDDVRKLYKPNVKWEAADTRRQGVDVVVEQMKKVQDKGVEFQVRKAKVEGDRFQVVYDVKLGNDTATFTVQVEARGGQIDEVRAKVDEKAYKVMKKG
  protease stability score: 0.123

## DEKQLKKAADRMVKAMETGDPQQINRMADENVRVEVGDKRISGEEDINRWLKELSDQADHARVKSIDASGNTVRVEMTIVVNGRETKLTIHVHFENGTAHHVRFQKS
  protease stability score: 0.223

## DEEKQKEYADRFNEILKSGNEDEFRKMADEDVTAQYGDKEVHGREEVTKTMSRFLRTVDKIKVDSVEVHNGRVIIHFVVRVNGQDQRVVMEFKVHNGKIKELVMRSQ
  protease stability score: 1.51

## DTDAVKNFKEDLHAVRSGDPDRLLKMFDPNAKLQIGDKEVTGMDQYAKEVHNTRQEIRMSYELRDYKVDGDKIEADIRVQKDVNGRPYRDKVKVDIKVNNGRIKKARYQVDEDKEKQLQS
  protease stability score: -0.126

## EDEELRKMVKQWEKGDPDQLLRYADEDAEFKVGDQQFHGREQLKHYIKRLKHRVDHFQIRKVTREGDRVRIDAFQVVNGRKIVYVFVLEVKNGRLKRLTMDFRDEKDERHFRTMLK
  protease stability score: 0.902

## DQDAARIYKHQVEAIKTGNPSKVMELADPNVEFHVGDRVITGREQLRNDVDRHKKQMRVEIRIEDITDQGEFANIRANVTIDVNGRPKTSRVNMRVFAHNGKVKSQDFQTSQ
  protease stability score: 0.52

## DDKAADDARRALEQLNTGNEERAATYMDPNVSVRIGDKSVHGREEIQRSEERKRRRLEVQYKDYRVSVENGEFTASYDYTNHHNGRPQRVKVEVHISADNGKIKSVQQHEDK
  protease stability score: 0.213

## DHKHLQEQARRLVDALVTGDPEEAANLADPNARARIGDKTIHGREQFRNAMQRFSNQADHVQVDHFTVQGDKVQVKMSINVNGQSFDVVMVARMDNGHIRHIRFDPDQIRQVQG
  protease stability score: 0.052

## DEEIQKLIDDALKAYERGNEDQQAELFDENARVRIGDQTLHGREDLKEHLKRVKDHINFRIESYDVKVHNGRMHATLTLVMQIDGQPDQWSVHLRADVNNGRIKHFEMDMDPEKQRELTK
  protease stability score: -0.044

## DEKKLEEVAKKVMDAMRKGDSETLVKLGKPDVTFKVADIEFKGQDQLRKYYKLDQDVGVELHLKEEKKEGNKFTMVYDARFGGTQDTVEVEVEVKDEKVDKARAKFTEEYAKHIQKG
  protease stability score: 0.586

## DDDKKAHKFFSEMLTAIQTGNEDQLRHLVDKDAHINVGDDVITGRENIVETWREKRERVDDLDAKVDSYHVHNGRIEIRAKESSTKNGKSDSRDFRIQARLTNGHVKLQKKEQN
  protease stability score: -0.348

## DERAEELLQRWMDAQRTGNPDEFVKLLDPNARYVVGDKEIHGSEQFKTHWQRQQDEMNVKVDVEDVKFSGNKISVRFHIEVDVNGRPLTDTATATWDLHNGRIKRQVYHLDPEFLRQVDS
  protease stability score: 0.936

## DHEREAKHFVDDWVRALRTGDSKTIEELMDPNVTLRVGDQKLHGRSQNSDQVRRWKERVDTIDVKVRSINKTGDHMRVHVDVVMDINGEKDNKELVINFDKHNGRLIVKHASYG
  protease stability score: -0.113

## DEELADKMRKWWQNVHQGNHDHIREMVDPNVKFQVGNKQYHGRETMSSLVVELKREITFRVDRMSASVHNGRLHVRLDIKYEVNGQPDRENLRIEANIHNGKIKSLSVQMDNEKLKKLHK
  protease stability score: 1.03

## DHRAIHLVRENLDARRHNDSKKAREMADKDATFHIGDRFIHGMDSFVKTLTDENREMRIEIERMSYNDRPGRVEVKQDVRENHNGSPKRFTYHAEMHVQGDHVRTQTEHRTD
  protease stability score: -0.281

## DEEKILQDLIKTYQDLAKTNDFESMAKEADEDAHVNIGDKEVHGRESLNKHFRQLQKEVDHVEVDVRDYRVHGDKFEIKFVVNNQRDGQTDRKTVRIEYVQNGDKVRAKSFTTG
  protease stability score: -0.176

## DEQRQAEEWVDKLESELHDGDFTKFANMADENARIVIGDKEIHGRENLQEHAKELKHRVDHVEMHVRHLYVTNGTLTVDVDMVLNHNGQRDKRRVVIVATSENGKFRAQHVTYS
  protease stability score: 1.05

## EEHMEDSFRKWKDNLRTNDEKSLEKMADPNATFDVGDKRFRGMHKYVHDLVNTLRSMRVDIKINSIDVQGDKIKARAQATVYHNGRPQRYTFSFEIKINNGHIQRLVRKDDQ
  protease stability score: -0.035

## DDENQQHFAEKMATAVIKNDPDEIVRLADPNVQVQVGEKEVHGREEVHELMEELKDQADHVHLVSVHVSNGQVNIVVDVVVNGKRLRVTITVKFNNGKVRYIRVDPEFQRKMDK
  protease stability score: -0.095

## DEENRKIAKKLVEAMHTNDEETLEKMFDPNVRFDVGDREVHGKEQWKREQHKKNREARFEIQRYTISYEGDKAVVRIHQVEDHNGQPREDTYVMHVEVHNGKVKRVVQRKDS
  protease stability score: -0.129

## EKEEVKKAVEAFNENDEDELRDLVDENVKVVIGEKDYTGRETYWQFLRRMHEQIDHMHVKSVSVSNGVLRMDVEVVFNGRNVRFTIEVQAHDGQIKRVHYQARSEEQHKEFLKMLK
  protease stability score: 1.58

## DERQNKEAFQRVAENITTNNPDEIMKQADPNVRFKYGDKEVHGRENVRDIVKEFNERVDRVQIDHVNVQGDKVNANATADVNGRKHRFQIHAVIKNGRLKFMQIHDQ
  protease stability score: 1.09

## DEELHEVVERLLQALRNGDPDQFKKNVDPNVKIVVGETQYHGREEAAHQLHQEHNNSSFQYVSVDVQVHGNKVVIDQRRRETQNGQPDSENFSEEAEAHNGKFKHIRQRSTK
  protease stability score: -0.235

## DKELRHSWEDQLRAEEEGDENRLRELIDPNASFVVGDKSIHGREQFADDMRRKLTEMRVEIKSYSVHAHNGHLDIKVHRRVNHDGEPKEDTYRADVQADNGRIVRVTIQSDG
  protease stability score: -0.652

## DPKKLKEAVEKVIQAMEKGNVEEVVKLYKPDVKFVLGDQEFRGREDVKKQAKKFYTKGARFQLRKVEVKGDKVEVVVDVEVGGTRKTFKFTLKVEDDTVDEYEIRFTEEAKKAKEKG
  protease stability score: 0.839

## DEEVLEQVKKYIDAEKSNDPDQAVKLFDENADMQIGDKRVNGREQIKTEIERRIREMNRDVEVTHVHVDNGRATLTVRLRFTVNGKPHEDRFIIQAHATNGRINTLTVHFDEQSKRDVDK
  protease stability score: 0.741

## DEQHDREMVSRLKTALQHGDPDELVELADENARVEIGEKTVHGRHQIREQAKRWRERVDHVQIEDVDVQNGQARVQMTVDHNGRTRKEVVQMTAHNGTVESLRFQSQ
  protease stability score: -0.216

## DEEFVRTVVKAHEENDEKKFNDLMDKDVKVDIGNKELRGRDQARKQLHHLRDKIDHYHVKSVTFKGNRIQIKAEFQVDGRRISAIYQQDVHNGHITSFRVSVTDPRDKHKLDEIVG
  protease stability score: 0.151

## DEDRKAREFIHDEQRAFEQNNPDDIVRLADPNVRVNIGEHDVRGHEDFKKWVDELLEKYDQINFKVTSVSVRGDHIEATVMIQNQKNGEDDTHVVLITLKDHNGRLLIEMIQER
  protease stability score: 0.315

## DERKQHEVAEKVAKNFVDGNPSEFVKNMDPNAEVVIGDKTVTGREDIHRLVKDFHDKIDHIELKDLKVKNGRIEIIFQADNNGHKRQYRADVKANNGRMTTFEVREQ
  protease stability score: 0.927

## DEDQVEVMRELWRAYEDGADDQLKKLVDPNARFEVGDKHIEGREEYARDMQRQRKEIRVHYREISIENREGRLHIDYIYQRTHNGQPQTVRQVVEVDIKNGVVQRQRVQDVS
  protease stability score: 0.474

## DDDKRHLAQRFFEAMKRGDPRQALNNMDPNARVVIGDKVIRGRDKFHEHIDKLNKHQRVQYRDVKLHDQGDKITANVDVVRNENGRPHRNVYVAEFSARNGRLTEVEMREDK
  protease stability score: -0.138

## DEERNERHAQDLMRALENNDEERLRQLLDKDAKLNVGDHEIHGSENIVKRLAEFLKRADHLRFERMTVRGDTVQISFEVEHDGERRKYEVHITVHNGHVQSITIQKQ
  protease stability score: 2.49

## DEDTLKHMAREFVKALQTGDEDRLSEMVDENVRIDYGDKTVSGRKKAQEYAHRVRKQVDHIEVREVEVHGNKVEIDAVLVFNGQRLTVTFRIIMRNGKVQHIQLEVTDPDKQRKAEQ
  protease stability score: 1.26

## DERKRATEIAEQIQTILRTGNPKDMRRMADEDVKVDVGDQRIHGRDQLATTLHKLRKRADHIDIKIVSVNAQGDKFVVRQRVRETVNGRVRTFEFVMVLRVHNGREVVKSRHQS
  protease stability score: 0.225

## DEKKVEQAEQWIRNLQTGDPDKANDMFDPNAEITVGDHVVHGREEFKDRMEKDMRNMRIKFEDVHASVKNGRVTVSVDQVDTNNGKPKRYRYNLTIDLRNGKVTEIVNKEDK
  protease stability score: 0.066

## DEEILNKAVEALRVEHQGNRKDLKRMFDPNAKRRVGDKTITGMDNLLKELSDKRRHLNVDVKIDSLHAEGNRVELDVSQRQNTNGQPSEFRAKIVITVKNGRMVDVTIHRTK
  protease stability score: -0.016

## DESAKRKFEEFLEQIRHNNPDELKKMMDKDVRVNIGDKEINGRDQVKNELERFAKEQRFRIQVKHMSVSNGHLHAKVTVESTHNGSPDSDKFQVQANFQGDKFKEMQWDKDS
  protease stability score: -0.189

## DDHKVEHVNRLFETNNPDKLAKNVDPNADNQVGDKRYHGRQKIHTFLKNMYTRVDHVDIHRISVNGNRLQIDATYDIDGRRFYADMRFRLHNGRIKEVRVRFTNEEQDKVVKEAVK
  protease stability score: 0.985

## DEEEQKVFEKVQDAIRDGDEDTVKKLMDENAKVTIGDKDLHGSDNIARHVHKLHKDMRISIDIKHIDVTGDKIRVHARVEVDKNGKPKHYDVDFTARAKNGKVKTLNYREDS
  protease stability score: 0.694

## DEENQQDYARKMNEMIVQNDPDEALRLFDPNVKVDIGDTRIDGRHDLERWVEDLKKQVDHVQLHDVKFRGDHASIHIEMTVNGRTISQIYHIVFHNGKAKEMKVETK
  protease stability score: 0.567

## DEEKLKKVIDTLQKALQNGNPDEIVKVIDKTVKFKLGDETFEGQEDARKVIKRLRDQGMEFHVERQEVTGDQAKVQTVWHAGDVEMHMHVTYDVDGDKVKRVEVRWDEEAKKAVKKG
  protease stability score: 0.562

## DEKKQAEDFFDTWVEIVKSGDEEKAQQMADPNVRFQIGDKSWRGREDFKKFLKTQLKRADHIRFEVQRITVRPNHIEVQFRIVIDNNGQDSRDTLTFVIKVNGDRLRLVEMHEG
  protease stability score: 1.43
